Results on 15 molecules are retold here after patent publication US11214614B2, “LTBP complex-specific inhibitors of TGFβ and uses thereof” (Scholar Rock, Inc., priority 2019, dated 2022).

First the molecules themselves.
B1: SR-AB48-HuFab (antibody, V domains shown)
VH: QVQLVESGGGVVQPGRSLRLSCAASGFTFRSYVMHWVRQAPGKGLEWVAVISHEGSGKYYADSVKGRFTISRDNSKNTLYLQMNSLRAEDTAVYYCARPRIAARRGGFGSWGQGTLVTVSS
VL: NFMLTQPHSVSESPGKTVTISCTRSSGNIDYNYVQWYQQRPGSSPTTVIYEDNVRPSGVPDRFSGSIDSSSNSASLTISGLKTEDEADYYCQSYDYDTQGVVFGGGTKLTVL
B2: SR-AB46-HuFab (antibody, V domains shown)
VH: QVQLVESGGGVVQPGRSLRLSCAASGFTFRSYVMHWVRQAPGKGLEWVAVISHEGSGKYYADSVKGRFTISRDNSKNTLYLQMNSLRAEDTAVYYCARPRIAARRGGFGSWGQGTLVTVSS
VL: NFMLTQPHSVSESPGKTVTISCTRSSGNIDYNYVQWYQQRPGSSPTTVIYEDNVRPSGVPDRFSGSIDSSSNSASLTISGLKTEDEADYYCQSYDSDNQRVVFGGGTKLTVL
B3: SR-AB61-HuFab (antibody, V domains shown)
VH: QVQLVESGGGVVQPGRSLRLSCAASGFTFRSYVMHWVRQAPGKGLEWVAVISHEGSGKYYADSVKGRFTISRDNSKNTLYLQMNSLRAEDTAVYYCALPRIAARRGGFGTWGQGTLVTVSS
VL: NFMLTQPHSVSESPGKTVTISCTRSSGNIDYNYVQWYQQRPGSSPTTVIYEDNVRPSGVPDRFSGSIDSSSNSASLTISGLKTEDEADYYCQGYDWDTQGVVFGGGTKLTVL
B4: SR-AB51-HuFab (antibody, V domains shown)
VH: QVQLVESGGGVVQPGRSLRLSCAASGFTFRSYVMHWVRQAPGKGLEWVAVISHEGSGKYYADSVKGRFTISRDNSKNTLYLQMNSLRAEDTAVYYCARPRIAARRGGFGTWGQGTLVTVSS
VL: NFMLTQPHSVSESPGKTVTISCTRSSGNIDYNYVQWYQQRPGSSPTTVIYEDNVRPSGVPDRFSGSIDSSSNSASLTISGLKTEDEADYYCQSYDYDNQAVVFGGGTKLTVL
B5: SR-AB55-HuFab (antibody, V domains shown)
VH: QVQLVESGGGVVQPGRSLRLSCAASGFTFRSYVMHWVRQAPGKGLEWVAVISHEGSGKYYADSVKGRFTISRDNSKNTLYLQMNSLRAEDTAVYYCALPRIAARRGGFGSWGQGTLVTVSS
VL: NFMLTQPHSVSESPGKTVTISCTRSSGNIDYNYVQWYQQRPGSSPTTVIYEDNVRPSGVPDRFSGSIDSSSNSASLTISGLKTEDEADYYCQSYDYDNQAVVFGGGTKLTVL
B6: SR-AB57-HuFab (antibody, V domains shown)
VH: QVQLVESGGGVVQPGRSLRLSCAASGFTFRSYVMHWVRQAPGKGLEWVAVISHEGSGKYYADSVKGRFTISRDNSKNTLYLQMNSLRAEDTAVYYCALPRIAARRGGFGSWGQGTLVTVSS
VL: NFMLTQPHSVSESPGKTVTISCTRSSGNIDYNYVQWYQQRPGSSPTTVIYEDNVRPSGVPDRFSGSIDSSSNSASLTISGLKTEDEADYYCQGYDWDTQGVVFGGGTKLTVL
B7: SR-AB49-HuFab (antibody, V domains shown)
VH: QVQLVESGGGVVQPGRSLRLSCAASGFTFRSYVMHWVRQAPGKGLEWVAVISHEGSGKYYADSVKGRFTISRDNSKNTLYLQMNSLRAEDTAVYYCARPRIAARRGGFGSWGQGTLVTVSS
VL: NFMLTQPHSVSESPGKTVTISCTRSSGNIDYNYVQWYQQRPGSSPTTVIYEDNVRPSGVPDRFSGSIDSSSNSASLTISGLKTEDEADYYCQGYDWDTQGVVFGGGTKLTVL
B8: SR-AB60-HuFab (antibody, V domains shown)
VH: QVQLVESGGGVVQPGRSLRLSCAASGFTFRSYVMHWVRQAPGKGLEWVAVISHEGSGKYYADSVKGRFTISRDNSKNTLYLQMNSLRAEDTAVYYCALPRIAARRGGFGTWGQGTLVTVSS
VL: NFMLTQPHSVSESPGKTVTISCTRSSGNIDYNYVQWYQQRPGSSPTTVIYEDNVRPSGVPDRFSGSIDSSSNSASLTISGLKTEDEADYYCQSYDYDTQGVVFGGGTKLTVL
B9: SR-AB58-HuFab (antibody, V domains shown)
VH: QVQLVESGGGVVQPGRSLRLSCAASGFTFRSYVMHWVRQAPGKGLEWVAVISHEGSGKYYADSVKGRFTISRDNSKNTLYLQMNSLRAEDTAVYYCALPRIAARRGGFGTWGQGTLVTVSS
VL: NFMLTQPHSVSESPGKTVTISCTRSSGNIDYNYVQWYQQRPGSSPTTVIYEDNVRPSGVPDRFSGSIDSSSNSASLTISGLKTEDEADYYCQSYDSDNQRVVFGGGTKLTVL
B10: SR-AB52-HuFab (antibody, V domains shown)
VH: QVQLVESGGGVVQPGRSLRLSCAASGFTFRSYVMHWVRQAPGKGLEWVAVISHEGSGKYYADSVKGRFTISRDNSKNTLYLQMNSLRAEDTAVYYCARPRIAARRGGFGTWGQGTLVTVSS
VL: NFMLTQPHSVSESPGKTVTISCTRSSGNIDYNYVQWYQQRPGSSPTTVIYEDNVRPSGVPDRFSGSIDSSSNSASLTISGLKTEDEADYYCQSYDYDTQGVVFGGGTKLTVL
B11: SR-AB53-HuFab (antibody, V domains shown)
VH: QVQLVESGGGVVQPGRSLRLSCAASGFTFRSYVMHWVRQAPGKGLEWVAVISHEGSGKYYADSVKGRFTISRDNSKNTLYLQMNSLRAEDTAVYYCARPRIAARRGGFGTWGQGTLVTVSS
VL: NFMLTQPHSVSESPGKTVTISCTRSSGNIDYNYVQWYQQRPGSSPTTVIYEDNVRPSGVPDRFSGSIDSSSNSASLTISGLKTEDEADYYCQGYDWDTQGVVFGGGTKLTVL
B12: SR-AB59-HuFab (antibody, V domains shown)
VH: QVQLVESGGGVVQPGRSLRLSCAASGFTFRSYVMHWVRQAPGKGLEWVAVISHEGSGKYYADSVKGRFTISRDNSKNTLYLQMNSLRAEDTAVYYCALPRIAARRGGFGTWGQGTLVTVSS
VL: NFMLTQPHSVSESPGKTVTISCTRSSGNIDYNYVQWYQQRPGSSPTTVIYEDNVRPSGVPDRFSGSIDSSSNSASLTISGLKTEDEADYYCQSYDYDNQAVVFGGGTKLTVL
B13: SR-AB50-HuFab (antibody, V domains shown)
VH: QVQLVESGGGVVQPGRSLRLSCAASGFTFRSYVMHWVRQAPGKGLEWVAVISHEGSGKYYADSVKGRFTISRDNSKNTLYLQMNSLRAEDTAVYYCARPRIAARRGGFGTWGQGTLVTVSS
VL: NFMLTQPHSVSESPGKTVTISCTRSSGNIDYNYVQWYQQRPGSSPTTVIYEDNVRPSGVPDRFSGSIDSSSNSASLTISGLKTEDEADYYCQSYDSDNQRVVFGGGTKLTVL
B14: SR-AB54-HuFab (antibody, V domains shown)
VH: QVQLVESGGGVVQPGRSLRLSCAASGFTFRSYVMHWVRQAPGKGLEWVAVISHEGSGKYYADSVKGRFTISRDNSKNTLYLQMNSLRAEDTAVYYCALPRIAARRGGFGSWGQGTLVTVSS
VL: NFMLTQPHSVSESPGKTVTISCTRSSGNIDYNYVQWYQQRPGSSPTTVIYEDNVRPSGVPDRFSGSIDSSSNSASLTISGLKTEDEADYYCQSYDSDNQRVVFGGGTKLTVL
B15: SR-AB56-HuFab (antibody, V domains shown)
VH: QVQLVESGGGVVQPGRSLRLSCAASGFTFRSYVMHWVRQAPGKGLEWVAVISHEGSGKYYADSVKGRFTISRDNSKNTLYLQMNSLRAEDTAVYYCALPRIAARRGGFGSWGQGTLVTVSS
VL: NFMLTQPHSVSESPGKTVTISCTRSSGNIDYNYVQWYQQRPGSSPTTVIYEDNVRPSGVPDRFSGSIDSSSNSASLTISGLKTEDEADYYCQSYDYDTQGVVFGGGTKLTVL

The target in the assay is huLTBP1 proTGFβ1 (Homo sapiens, UniProt P01137+Q14766). Put plainly: SPR (Biacore 8K) monovalent binding kinetics of Fabs, biotinylated antigen captured. Also on record: biotin (complex biotinylated). Particulars: Fab, huLTBP1 proTGFβ1; SR-AB42-HuFab average of five, SR-AB63-HuFab average of four replicate experiments. The protocol: A Biacore 8K system was employed to determine the monovalent binding affinity and the kinetic parameters for antigen binding of test antibodies. Association and dissociation kinetics of Fab fragments SR-AB42-HuFab, SR-AB63-HuFab and SR-AB43-HuFab to antigen complexes were measured, and resulting ka, kd and KD are provided below. Briefly, the binding kinetics were evaluated by surface plasmon resonance using Biacore 8K (GE Healthcare). Biotinylated capture antigens were immobilized to the chip (10 nM, ˜200 RU loading). A Biotin CAPture sensor chip was used to capture the biotinylated antigens. Fabs at 10, 5, 2.5, 1.25, and 0.6 nM concentrations were injected over the captured antigens. 0 nM was used as a reference. Affinities of LTBP antibodies to GARP and LRRC33 were confirmed using higher concentration of Fabs (100, 50, 25, 12.5, 6.25 nM). 0 nM was used as a reference. Multi-cycle kinetics was employed where each analyte concentration was injected in a separate cycle and the sensor chip surface was regenerated after each cycle. All the assays were carried out in freshly prepared 1×HBS-EP+buffer (10 mM HEPES, 150 mM NaCl, 3 mM EDTA, 0.05% Tween20, pH 7.4). Data were fit globally to a 1:1 binding model to obtain the kinetic parameters. The sensorgram for 0 nM analyte concentration was used as reference.
huLTBP1 proTGFβ1, sequence (P01137 30-390): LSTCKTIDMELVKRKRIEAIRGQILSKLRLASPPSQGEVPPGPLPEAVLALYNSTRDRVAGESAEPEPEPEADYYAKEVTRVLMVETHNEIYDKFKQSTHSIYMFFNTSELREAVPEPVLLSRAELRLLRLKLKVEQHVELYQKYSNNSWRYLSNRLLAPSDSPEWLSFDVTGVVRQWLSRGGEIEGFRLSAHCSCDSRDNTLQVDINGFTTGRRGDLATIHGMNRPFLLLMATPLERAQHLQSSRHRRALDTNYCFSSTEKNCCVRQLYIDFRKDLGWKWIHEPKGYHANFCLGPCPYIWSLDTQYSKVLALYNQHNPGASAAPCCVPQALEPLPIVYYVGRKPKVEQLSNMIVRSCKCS
huLTBP1 proTGFβ1, sequence (Q14766 347-1721 limits assumed): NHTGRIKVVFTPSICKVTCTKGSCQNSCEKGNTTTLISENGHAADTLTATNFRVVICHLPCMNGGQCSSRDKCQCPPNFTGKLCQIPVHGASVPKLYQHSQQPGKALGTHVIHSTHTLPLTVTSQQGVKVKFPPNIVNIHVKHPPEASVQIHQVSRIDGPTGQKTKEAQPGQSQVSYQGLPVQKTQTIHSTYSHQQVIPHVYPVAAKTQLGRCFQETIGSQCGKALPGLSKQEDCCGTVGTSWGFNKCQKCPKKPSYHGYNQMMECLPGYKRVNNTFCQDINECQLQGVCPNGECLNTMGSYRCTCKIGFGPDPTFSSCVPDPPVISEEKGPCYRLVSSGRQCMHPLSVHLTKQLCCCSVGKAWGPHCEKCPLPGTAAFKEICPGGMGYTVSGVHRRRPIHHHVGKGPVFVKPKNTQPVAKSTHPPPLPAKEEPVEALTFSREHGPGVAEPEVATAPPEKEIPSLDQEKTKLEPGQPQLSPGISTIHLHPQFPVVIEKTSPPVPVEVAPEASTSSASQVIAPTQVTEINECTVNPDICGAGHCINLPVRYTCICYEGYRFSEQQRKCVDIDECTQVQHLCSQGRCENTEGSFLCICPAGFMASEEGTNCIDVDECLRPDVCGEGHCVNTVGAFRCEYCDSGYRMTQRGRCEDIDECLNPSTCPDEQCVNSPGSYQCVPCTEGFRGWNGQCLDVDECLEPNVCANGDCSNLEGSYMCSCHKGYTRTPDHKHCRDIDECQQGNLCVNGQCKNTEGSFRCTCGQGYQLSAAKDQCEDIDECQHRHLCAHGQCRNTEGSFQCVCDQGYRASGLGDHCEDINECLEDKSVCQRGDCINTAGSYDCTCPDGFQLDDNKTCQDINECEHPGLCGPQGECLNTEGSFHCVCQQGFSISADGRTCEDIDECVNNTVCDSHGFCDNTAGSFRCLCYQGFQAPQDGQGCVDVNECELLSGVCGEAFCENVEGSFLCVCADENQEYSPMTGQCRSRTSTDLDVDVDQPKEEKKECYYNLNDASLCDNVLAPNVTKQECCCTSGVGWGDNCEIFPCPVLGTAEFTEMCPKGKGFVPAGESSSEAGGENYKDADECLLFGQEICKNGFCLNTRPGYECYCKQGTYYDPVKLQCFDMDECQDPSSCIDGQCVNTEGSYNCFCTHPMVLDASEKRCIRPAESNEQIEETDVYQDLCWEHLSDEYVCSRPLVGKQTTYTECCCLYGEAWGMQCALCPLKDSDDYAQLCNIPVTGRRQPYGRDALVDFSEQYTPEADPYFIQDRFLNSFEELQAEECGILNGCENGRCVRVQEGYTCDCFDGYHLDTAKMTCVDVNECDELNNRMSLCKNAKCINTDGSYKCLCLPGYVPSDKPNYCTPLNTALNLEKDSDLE
• 96 well plates—Greinerbio-one REF 650101 • Microplate Foils—GE Healthcare—CAT #28-9758-16 • Biotin CAPture Kit GE Healthcare product number 28920233 • Biacore running buffer—supplied as a 20× solution, diluted in Milli-Q water, TEKnova CAT #H8022 Method:
These experiments were performed using the Biacore 8K using the method “multi-cycle kinetics/affinity using Biotin CAPture kit.”
Data collection rate was set to 10 Hz and the Biotin CAPture step was performed for 300 seconds with a flow rate of 2 μL/minute. The Biotin CAPture reagent was used after a 1:5 dilution in 1× Biacore running buffer. Biotinylated ligands (the various complexes of TGFβ1) were utilized at a concentration of 10 nM and were immobilized to the sensor chip for 180 seconds with a flow rate of 10 μL/minute. The analytes, which are each of the Fabs, were tested at 10, 5, 2.5, 1.25, and 0.625 nM with a 0 nM control included. Analyte contact time was 120 seconds and the dissociation time was 900 seconds. The regeneration cycle utilized was 120 seconds with a flow rate of 10 μL/minute.
The evaluation method used was “multi-cycle affinity using capture” and a 1:1 binding model was used. […] Global fits were utilized for every KD determination.
In general terms: Surface plasmon resonance follows binding to a sensor surface in real time, without labels.
For B1, the ka was determined as 1.76e+06 M⁻¹ s⁻¹ and the kd turned out to be 0.000104 s⁻¹.

Regarding B2, the ka turned out to be 2.47e+06 M⁻¹ s⁻¹ and the kd was 0.00011 s⁻¹.

B3: the ka came out at 1.17e+06 M⁻¹ s⁻¹ and the kd amounted to 0.000155 s⁻¹.

The molecule B4 showed a ka of 2.55e+06 M⁻¹ s⁻¹ and a kd of 0.00015 s⁻¹.

B5 yielded a ka of 862000 M⁻¹ s⁻¹ and a kd of 0.000113 s⁻¹.

B6 registered a ka of 1.35e+06 M⁻¹ s⁻¹ and a kd of 0.000181 s⁻¹.

Consider B7, for which the ka was 809000 M⁻¹ s⁻¹ and the kd was determined as 0.000138 s⁻¹.

For the molecule B8, the ka is 2.35e+06 M⁻¹ s⁻¹ and the kd amounted to 0.00012 s⁻¹.

B9 gave a ka of 3.11e+06 M⁻¹ s⁻¹ and a kd of 0.000162 s⁻¹.

In turn, B10 returned a ka of 2.5e+06 M⁻¹ s⁻¹ and a kd of 9.91e-05 s⁻¹.

B11 displayed a ka of 1.82e+06 M⁻¹ s⁻¹ and a kd of 0.000128 s⁻¹.

B12 had a ka of 2.55e+06 M⁻¹ s⁻¹ and a kd of 0.00013 s⁻¹.

The molecule B13 came in with a ka of 3.31e+06 M⁻¹ s⁻¹ and a kd of 0.000182 s⁻¹.

Molecule B14 had a ka of 1.8e+06 M⁻¹ s⁻¹ and a kd of 8.83e-05 s⁻¹.

As to B15, the ka stood at 2.58e+06 M⁻¹ s⁻¹ and the kd is 0.000126 s⁻¹.
